{"source": "paper PMC2919855", "about": "(Biochemistry, 2010)", "key": {"[1]": {"target": "photoactivated rhodopsin (R*) in ROS membranes (Bos taurus, UniProt P02699)", "sequence (P02699 whole entry)": "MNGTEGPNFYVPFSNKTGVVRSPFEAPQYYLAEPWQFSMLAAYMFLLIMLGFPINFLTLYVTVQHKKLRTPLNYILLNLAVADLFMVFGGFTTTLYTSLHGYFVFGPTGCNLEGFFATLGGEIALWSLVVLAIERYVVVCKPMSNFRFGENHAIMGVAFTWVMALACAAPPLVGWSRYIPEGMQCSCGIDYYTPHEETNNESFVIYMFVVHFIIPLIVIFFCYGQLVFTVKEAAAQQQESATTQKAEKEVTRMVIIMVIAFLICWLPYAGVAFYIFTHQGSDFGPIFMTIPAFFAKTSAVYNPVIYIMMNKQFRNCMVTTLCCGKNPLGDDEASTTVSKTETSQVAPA", "assay": "Direct binding by EPR: spectral integration of bound and free peptide components"}, "[2]": {"target": "T1, rhodopsin in rod outer segments (ROS) (Bos taurus, UniProt P02699)", "T1 sequence (P02699 whole entry)": "as above", "assay": "Meta II", "type": "biochemical", "conditions": "result in words"}, "[3]": {"target": "rhodopsin in rod outer segment (ROS) membranes (UniProt P02699)", "sequence (P02699 whole entry)": "as above", "assay": "EPR spectroscopy"}, "[4]": {"target": "rhodopsin in rod outer segment (ROS) membranes (UniProt P02699)", "assay": "Meta II stabilization assay"}, "[5]": {"target": "rhodopsin in rod outer segment (ROS) membranes (UniProt P02699)", "assay": "time-resolved EPR after a laser flash"}, "[6]": {"target": "T1, rhodopsin in rod outer segments (ROS)", "conditions": "cited from earlier work"}}, "note": "Non-standard residues stand in square brackets, D forms with d. Residues, ends and D or L forms follow the SMILES beside them. No end group written: not given here. *: point of attachment. Proxyl = 3-carboxy-2,2,5,5-tetramethylpyrrolidinyloxy spin label; TOAC = CC1(C)CC(N)(C(=O)O)CC(C)(C)N1[O]; X1 = CC1(C)CC(C(=O)*)C(C)(C)N1[O]; Aib = CC(C)(N)C(=O)O", "data": [{"compound": "CC(C)C[C@H](NC(=O)[C@H](CC(=O)O)NC(=O)[C@H](CCC(=O)O)NC(=O)[C@H](CC(C)C)NC(=O)[C@@H](NC(=O)C1CC(C)(C)N([O])C1(C)C)C(C)C)C(=O)N[C@@H](CCCCN)C(=O)N[C@@H](CO)C(=O)N[C@@H](CS)C(=O)NC1(C(=O)N[C@@H](CC(C)C)C(=O)N[C@@H](Cc2ccccc2)C(=O)O)CC(C)(C)N([O])C(C)(C)C1", "note": "(stereo partly drawn) [Proxyl/TOAC^348-Gtα(340–350)] (X1-VLEDLKSC[TOAC]LF-OH)", "values": [{"measurement": "Kd", "setting": "[1]", "result": 65, "unit": "µM"}, {"measurement": "ability to stabilize the MII state of rhodopsin", "setting": "[2]", "result": "retained the ability to stabilize the MII state"}]}, {"compound": "IKE-TOAC-LKDCGLF [TOAC^343-Gtα(340–350)]", "values": [{"measurement": "ability to stabilize the MII state of rhodopsin", "setting": "[2]", "result": "retained the ability to stabilize the MII state"}]}, {"compound": "Proxyl-Gtα(340–350) high-affinity peptide", "values": [{"measurement": "Kd", "setting": "[3]", "result": 4, "unit": "µM"}]}, {"compound": "Proxyl-Gtα(340–350): Gtα(340–350) with Proxyl spin label at the amino terminus (Proxyl-IKENLKDCGLF)", "values": [{"measurement": "ability to stabilize the MII state of rhodopsin", "setting": "[2]", "result": "retained the ability to stabilize the MII state"}]}, {"compound": "TOAC^343-Gtα(340–350) high-affinity peptide", "values": [{"measurement": "Kd", "setting": "[4]", "result": 10, "unit": "µM"}, {"measurement": "Kd", "setting": "[3]", "result": 12.5, "unit": "µM"}, {"measurement": "lifetime of binding after the flash (single exponential)", "setting": "[5]", "result": 5.8, "unit": "ms"}]}, {"compound": "[Aib]K[Aib][Aib]LKDCGLG", "values": [{"measurement": "activity in stabilization of the MII state of rhodopsin", "setting": "[6]", "result": "full activity"}]}]}
